Results as given in PMC8024706 (iScience, 2021).

Molecular target: the molecule itself
Experiment: high-speed atomic force microscopy

B1: PDI I289A (enzyme)
chain: not shown
Q: How did the “stoichiometry N” value turn out when B1 was run?
A: 2
